Data on 2 molecules can be found in patent US20200079850A1 (SUTRO BIOPHARMA, published 2020).

Assay [1] concerns the target T1, hLAG3 (Acro Biosystems), SPR analyte (human, UniProt P18627 23-450).
T1 construct: also called human LAG3 kinetics
T1 sequence: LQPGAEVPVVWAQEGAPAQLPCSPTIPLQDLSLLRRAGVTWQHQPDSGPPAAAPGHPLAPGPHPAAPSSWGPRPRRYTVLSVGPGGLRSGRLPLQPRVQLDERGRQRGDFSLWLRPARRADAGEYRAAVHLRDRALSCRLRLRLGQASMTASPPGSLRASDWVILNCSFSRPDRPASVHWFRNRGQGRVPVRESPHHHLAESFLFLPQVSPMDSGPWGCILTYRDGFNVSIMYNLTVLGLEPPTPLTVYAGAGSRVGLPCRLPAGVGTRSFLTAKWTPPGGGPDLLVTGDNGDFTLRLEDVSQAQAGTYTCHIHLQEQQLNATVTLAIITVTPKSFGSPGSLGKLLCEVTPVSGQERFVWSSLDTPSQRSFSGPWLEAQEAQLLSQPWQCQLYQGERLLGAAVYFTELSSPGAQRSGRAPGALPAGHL
In words: SPR (Biacore), antibody captured by anti-Fc, hLAG3 as analyte, 25 C. The protocol: Anti-Fc polyclonal antibodies were immobilized onto a CMS chip (GE Life Sciences) using amine coupling chemistry (from Amine Coupling Kit, GE Life Sciences). The immobilization steps were carried out at a flow rate of 25 μl/min in 1×HBS-EP+buffer (GE Life Sciences; 10× Stock diluted before use). The sensor surfaces were activated for 7 min with a mixture of NHS (0.05 M) and EDC (0.2 M). The Anti-Fc antibodies were injected over all 4 flow cells at a concentration of 25 ug/ml in 10 mM sodium acetate, pH 4.5, for 7 min. Ethanolamine (1 M, pH 8.5) was injected for 7 min to block any remaining activated groups. An average of 12,000 response units (RU) of capture antibody was immobilized on each flow cell.
Kinetic binding experiments were performed at 25° C. using 1×HBS-EP+buffer. Test and control antibodies were injected over the anti-Fc surface at concentrations of 5-10 μg/mL for 12 seconds at a flow rate of 10 μl/min on flow cells 2, 3 and 4, followed by a buffer wash for 30 seconds at the same flow rate. Kinetic characterization of antibody samples was carried out with a dilution series of antigen and 1 injection of 0 nM antigen. After capturing ligand (antibody) on the anti-Fc surface, the analyte (hPD1 or hLAG3, Acro Biosystems, Newark, Del.) was bound at 100, 25, 6.25 and 0 nM for 180 seconds, followed by a 450 second dissociation phase at a flow rate of 50 μl/min. Between each ligand capture and analyte binding cycle, regeneration was carried out using 2 injections of 10 mM Glycine pH 2.0 for 30 seconds at 30 μL/min, followed by a 30 second buffer wash step.
The data was fit with the Biacore T200 Evaluation software, using a 1:1 Langmuir binding model. KD (affinity, nM) was determined as a ratio of the kinetic rate constants calculated from the fits of the association and dissociation phases.
(Surface plasmon resonance follows binding to a sensor surface in real time, without labels.)

Assay [2] addresses T2, rabbit Fc-tagged recombinant human PD1 (rhPD1-rabbit Fc) (human, UniProt Q15116 25-167, limits assumed).
T2 construct: also called recombinant human PD-1 protein
Kind of assay: flow cytometry competition: inhibition of rhPD1-rabbit Fc binding to human PD-L2 on CHO cells; PE anti-rabbit IgG detection. The method, then:
CHO-k cells stably expressing human PD-L1 or PD-L2 were used to measure the ability of anti-PD1/LAG3 bi-specific antibody constructs to block rabbit Fc-tagged recombinant human PD1 (rhPD1-rabbit Fc) protein binding. Cells were seeded at 100,000 cells/well in 100 μL of FACS buffer in 96-well polypropylene plates. The cells were centrifuged and resuspended with test antibodies (2× concentration) diluted in FACS buffer, immediately followed by equal volume of rhPD1-rabbit Fc (added at 2× concentration; 0.2 ng/mL and 0.1 ng/mL final for PD-L1 and PD-L2, respectively). Cells were incubated on ice for 1 hour and washed twice. rhPD1-rabbit Fc binding on CHO-human PD-L1 or PD-L2 cells was detected with R-Phycoerythrin AffiniPure F(ab′)₂ Fragment Goat Anti-Rabbit IgG (H+L) (1:200 dilution, Jackson ImmunoResearch) for 30 minutes. The cells were washed twice with FACS buffer, fixed in 4% paraformaldehyde in PBS for 20 mins on ice in the dark, washed twice with FACS buffer, and analyzed using the BD LSR II Flow Cytometer. Data were analyzed using FlowJo (FlowJo, LLC; Ashland, Oreg.) to determine mean fluorescence intensities. Prism 6 software was used to create one site, specific binding with Hill slope curves (Log transform) to determine IC₅₀ values.
Background: Flow cytometry measures light scatter and fluorescence of single cells or particles in a stream.

T2 sequence (Q15116 25-167 limits assumed): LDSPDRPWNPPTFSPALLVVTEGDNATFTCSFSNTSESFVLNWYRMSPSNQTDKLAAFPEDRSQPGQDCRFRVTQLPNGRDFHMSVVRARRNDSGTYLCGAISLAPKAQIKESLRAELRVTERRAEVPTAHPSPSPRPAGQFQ

B1: PD-1/LAG3 Bi-specific Construct C: aPD1 1353-G10 Vk1-39LC scFvFc zwB V262E; aLAG3 1449-G09.2 Fab zwA V262E (bispecific antibody, human IgG1, kappa)
scFv: EVQLVQSGAEVKKPGASVKVSCKASGYRFPHYGISWVRQAPGQGLEWMGWISAYNGNTNYAQKLQGRVTMTTDTSTNTAYMELRSLRSDDTAVYYCARDVDYGTGSGYWGQGTLVTVSSGGGGSGGGGSGGGGSDIQLTQSPSSLSASVGDRVTITCSGDALPKQYAYWYQQKPGKAPKLLIYKDTERPSGVPSRFSGSSSGTKVTLTISSLQPEDFATYYCQSADNSITYRVFGGGTKVEIKAAGSDQEPKSSDKTHTCPPCPAPELLGGPSVFLFPPKPKDTLMISRTPEVTCEVVDVSHEDPEVKFNWYVDGVEVHNAKTKPREEQYNSTYRVVSVLTVLHQDWLNGKEYKCKVSNKALPAPIEKTISKAKGQPREPQVYVLPPSREEMTKNQVSLLCLVKGFYPSDIAVEWESNGQPENNYLTWPPVLDSDGSFFLYSKLTVDKSRWQQGNVFSCSVMHEALHNHYTQKSLSLSPGK
heavy: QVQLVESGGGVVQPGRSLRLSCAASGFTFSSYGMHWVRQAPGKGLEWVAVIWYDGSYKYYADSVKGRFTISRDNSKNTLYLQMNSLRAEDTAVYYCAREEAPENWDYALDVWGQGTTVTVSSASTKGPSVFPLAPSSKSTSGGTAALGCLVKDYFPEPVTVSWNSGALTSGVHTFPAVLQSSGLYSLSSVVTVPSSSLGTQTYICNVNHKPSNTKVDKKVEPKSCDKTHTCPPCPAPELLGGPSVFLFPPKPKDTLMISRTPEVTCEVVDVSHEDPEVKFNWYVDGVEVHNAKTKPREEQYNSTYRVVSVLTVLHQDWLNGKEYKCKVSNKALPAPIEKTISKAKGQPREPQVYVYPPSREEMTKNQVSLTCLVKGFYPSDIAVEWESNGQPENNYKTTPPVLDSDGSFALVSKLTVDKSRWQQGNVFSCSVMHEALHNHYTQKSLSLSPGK
light: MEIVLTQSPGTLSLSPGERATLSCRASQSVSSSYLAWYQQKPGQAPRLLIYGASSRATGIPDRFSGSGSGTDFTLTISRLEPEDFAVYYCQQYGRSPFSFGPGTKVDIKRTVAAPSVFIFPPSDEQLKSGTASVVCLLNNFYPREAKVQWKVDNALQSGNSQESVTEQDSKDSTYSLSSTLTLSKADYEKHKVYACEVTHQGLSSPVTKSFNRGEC
notes: The N-terminal Met is not included
The Kd is the concentration at which binding is half-saturated. High values mean lower affinity, low ones higher affinity. For orientation: koff means a measure of how fast the partners let go of each other. As usually defined, the kon is the rate constant with which the complex forms. A higher kon goes with fast association. In general, IC50 refers to the concentration that gives 50% inhibition. Regarding B1, in assay [1], the affinity, expressed as Kd, was 0.519 nM; the koff came out at 0.000694 s⁻¹; the kon is 1.34e+06 M⁻¹ s⁻¹. The concentration for half-maximal inhibition (IC50) in assay [2] is 1.5 nM.

B2: PD-1/LAG3 Bi-specific Construct B: aPD1 1353-G10 scFvFc zwB R28T/P30D/H31S V262E; aLAG3 1449-G09.2 Fab zwA V262E (bispecific antibody, human IgG1, kappa)
scFv: EVQLVQSGAEVKKPGASVKVSCKASGYTFDSYGISWVRQAPGQGLEWMGWISAYNGNTNYAQKLQGRVTMTTDTSTNTAYMELRSLRSDDTAVYYCARDVDYGTGSGYWGQGTLVTVSSGGGGSGGGGSGGGGSSYELTQPPSVSVSPGQTARITCSGDALPKQYAYWYQQKPGQAPVMVIYKDTERPSGIPERFSGSSSGTKVTLTISGVQAEDEADYYCQSADNSITYRVFGGGTKVTVLAAGSDQEPKSSDKTHTCPPCPAPELLGGPSVFLFPPKPKDTLMISRTPEVTCEVVDVSHEDPEVKFNWYVDGVEVHNAKTKPREEQYNSTYRVVSVLTVLHQDWLNGKEYKCKVSNKALPAPIEKTISKAKGQPREPQVYVLPPSREEMTKNQVSLLCLVKGFYPSDIAVEWESNGQPENNYLTWPPVLDSDGSFFLYSKLTVDKSRWQQGNVFSCSVMHEALHNHYTQKSLSLSPGK
heavy: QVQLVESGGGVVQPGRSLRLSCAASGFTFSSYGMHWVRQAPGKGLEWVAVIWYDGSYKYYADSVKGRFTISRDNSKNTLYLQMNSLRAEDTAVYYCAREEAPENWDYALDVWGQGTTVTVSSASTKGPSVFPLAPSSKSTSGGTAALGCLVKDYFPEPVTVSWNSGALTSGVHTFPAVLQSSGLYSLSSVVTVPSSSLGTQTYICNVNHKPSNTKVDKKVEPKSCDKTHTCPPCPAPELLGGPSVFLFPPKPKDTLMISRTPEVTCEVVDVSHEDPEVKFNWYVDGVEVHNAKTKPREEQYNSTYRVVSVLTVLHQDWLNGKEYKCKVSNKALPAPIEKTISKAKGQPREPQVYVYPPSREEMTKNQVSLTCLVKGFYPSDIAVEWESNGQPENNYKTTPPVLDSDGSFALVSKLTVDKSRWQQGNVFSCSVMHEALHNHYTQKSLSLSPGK
light: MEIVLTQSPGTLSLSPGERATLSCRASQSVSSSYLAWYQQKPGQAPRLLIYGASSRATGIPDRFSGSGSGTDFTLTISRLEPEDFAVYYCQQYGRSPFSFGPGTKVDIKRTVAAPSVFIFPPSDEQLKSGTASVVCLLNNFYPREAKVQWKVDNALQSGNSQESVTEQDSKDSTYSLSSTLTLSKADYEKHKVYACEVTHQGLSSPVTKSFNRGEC
notes: as for B1
As to B2, in assay [1], binding was put at a Kd of 0.0944 nM, the koff worked out at 0.000138 s⁻¹ and the kon stood at 1.46e+06 M⁻¹ s⁻¹. Also, the IC50 in assay [2] worked out at 3.3 nM.
